Reference: article PMC2965138, “DEB025 (Alisporivir) Inhibits Hepatitis C Virus Replication by Preventing a Cyclophilin A Induced Cis-Trans Isomerisation in Domain II of NS5A” (PLoS ONE, 2010)

Molecular target: T1, Recombinant 15N-labelled CypA (UniProt P62937 1-165, 15N-labelled)
T1 construct: Cyclophilin A (CypA), peptidyl-prolyl cis-trans isomerase; also called 15N-CypA; source: recombinant, produced and purified as described previously [18]
Experiment: NMR titration; 15N-labelled CypA (100 µM) mixed with increasing concentrations of unlabelled peptide (0 to 2.5 mM); 1H,15N HSQC at each step; KD fitted from combined chemical shift perturbations
Details: both partners purified

B1: Pep-WT (residues 308-327 of NS5A from HCV GT1b Con1) (peptide)
peptide: KFPRAMPIWARPDYNPPLLE
notes: NS5A domain II of hepatitis C virus genotype 1b (Con1), residues 308-327; numbers count on: NS5A itself; also called WT peptide; Pep-WT peptide; source: synthetic peptide, bought: Neosystems (Strasbourg, France), purity greater than 95%
Q: Which Kd does the source give for B1 here?
A: 0.802 mM

B2: Pep-D320E (residues 308-327 of NS5A from HCV GT1b Con1 with D320E) (peptide)
peptide: KFPRAMPIWARPEYNPPLLE
notes: numbers count on: NS5A itself; also called D320E peptide; Pep-D320E peptide; source: synthetic peptide, bought: Neosystems (Strasbourg, France), purity greater than 95%
Q: With B2 as the binder, how does the Kd read?
A: 1.23 mM
